The target in assay [1] is Mouse PD-L1 on CHO cells (mouse) (UniProt Q9EP73). The assay can be described thus: flow cytometry, CHO-mPD-L1 cells, Anti-mouse-IgGFc-FITC. On the technique in general: In flow cytometry, cells or beads pass a laser one at a time.
Assay [2] has as its target Rhesus monkey PD-L1 on CHO cells (rhesus monkey). The assay can be described thus: flow cytometry, CHO-rmPD-L1 cells, Anti-mouse-IgGFc-FITC.
The target in assay [3] is human-mouse chimeric PD-L1 on CHO cells (human-mouse chimeric). Put plainly: flow cytometry, CHO-cPD-L1 cells, Anti-human IgG Fc-FITC.
Chain of human-mouse chimeric PD-L1 on CHO cells (human-mouse chimeric) (Q9EP73 other isoform, or with tags, fused parts or gaps mutant limits assumed): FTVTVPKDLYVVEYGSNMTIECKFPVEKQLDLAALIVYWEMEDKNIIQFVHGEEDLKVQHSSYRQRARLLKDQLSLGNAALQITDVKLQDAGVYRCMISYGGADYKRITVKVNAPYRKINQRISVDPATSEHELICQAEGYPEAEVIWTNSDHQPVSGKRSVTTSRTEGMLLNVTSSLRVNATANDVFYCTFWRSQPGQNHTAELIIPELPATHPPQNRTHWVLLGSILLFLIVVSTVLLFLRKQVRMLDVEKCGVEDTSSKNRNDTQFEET
Assay [4] addresses Rhesus monkey PD-L1 on CHO cells (rhesus monkey). Put plainly: flow cytometry, CHO-rPD-L1 cells, Anti-human IgG Fc-FITC.
In assay [5] the target is Mouse PD-L1 on CHO cells (mouse) (UniProt Q9EP73). The assay can be described thus: flow cytometry, CHO-mPD-L1 cells, Anti-human IgG Fc-FITC.

Chain of Rhesus monkey PD-L1 on CHO cells (rhesus monkey) (Q9NZQ7 other isoform, or with tags, fused parts or gaps limits assumed): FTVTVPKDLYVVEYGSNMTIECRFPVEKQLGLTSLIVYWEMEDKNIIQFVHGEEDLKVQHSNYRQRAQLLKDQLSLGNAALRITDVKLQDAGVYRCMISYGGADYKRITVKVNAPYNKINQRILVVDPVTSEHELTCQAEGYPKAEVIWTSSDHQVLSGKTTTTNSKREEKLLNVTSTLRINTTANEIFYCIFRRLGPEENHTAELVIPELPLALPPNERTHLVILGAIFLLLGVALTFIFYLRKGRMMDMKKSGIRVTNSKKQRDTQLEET
Chain of Mouse PD-L1 on CHO cells (mouse) (Q9EP73 19-290 limits assumed): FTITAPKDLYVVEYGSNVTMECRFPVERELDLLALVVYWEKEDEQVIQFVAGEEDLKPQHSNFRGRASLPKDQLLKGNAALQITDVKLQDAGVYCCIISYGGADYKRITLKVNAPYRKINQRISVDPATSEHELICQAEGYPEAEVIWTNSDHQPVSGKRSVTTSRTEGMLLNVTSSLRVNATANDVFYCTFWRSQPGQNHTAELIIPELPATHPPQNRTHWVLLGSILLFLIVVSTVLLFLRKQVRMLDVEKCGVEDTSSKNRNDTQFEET

NC: the % cells in the FITC-positive gate in assay [1] amounted to 5.52%; in assay [2], 1.13%; in assay [3], 0.779%; in assay [4], 2.74%; in assay [5], 0.681%.

The values above are taken from patent publication US20220073621A1.
